Results reported in CN117126289A (SUNSHINE GUOJIAN PHARMACEUTICAL SHANGHAI CO LTD, dated 2023).

What was measured:
重组Human-TROP-2-HIS蛋白 = target: T1, 重组Human-TROP-2-HIS蛋白 (human, UniProt P09758 27-274, limits assumed); assay: ELISA, coated TROP-2-HIS 200 ng/ml, HRP goat anti-human Fc
T1 construct: Bought protein; also called TROP-2-HIS蛋白 (恺佧, TRP-HM121); not shown: His tag
T1 sequence (looked up): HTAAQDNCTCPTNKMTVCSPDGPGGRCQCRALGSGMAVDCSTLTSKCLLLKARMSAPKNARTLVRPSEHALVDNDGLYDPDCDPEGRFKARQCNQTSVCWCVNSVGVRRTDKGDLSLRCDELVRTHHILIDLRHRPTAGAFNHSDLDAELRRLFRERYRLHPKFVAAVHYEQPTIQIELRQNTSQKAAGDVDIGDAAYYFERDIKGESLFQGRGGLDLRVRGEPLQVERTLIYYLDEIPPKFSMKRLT

重组Human-CD3-FC蛋白 = target: T2, 重组Human-CD3-FC蛋白 (human); assay: ELISA, coated CD3-FC 200 ng/ml, HRP goat anti-human Fab
T2 chain: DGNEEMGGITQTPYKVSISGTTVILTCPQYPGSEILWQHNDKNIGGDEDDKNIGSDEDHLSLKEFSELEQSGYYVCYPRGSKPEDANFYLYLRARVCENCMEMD

B1: KM4097HV3aLV0人源化单克隆抗体 (抗TROP-2单抗阳性对照) (antibody, V domains shown)
VH: QVQLVQSGPEVKKPGASVKVSCKASGYTFTIYWLGWVRQAPGQGLEWMGNIFPGSAYINYNEKFKGKVTITADTSTSTAYMELSSLRSEDTAVYFCAREGSNSGYWGQGTLVTVSS
VL: DIVMTQSPDSLAVSLGERATINCKSSQSLLNSGNQQNYLAWYQQKPGQPPKLLIYGASTRESGVPDRFSGSGSGTDFTLTISSLQAEDVAVYYCQSDHIYPYTFGQGTKLEIKR
notes: IgG (detected with anti-human Fc); also called 阳性对照抗TROP-2单抗
B1 was tested, and the EC50 (重组Human-TROP-2-HIS蛋白) was 26.1 pM.

B2: 人源化SP34 (抗CD3单抗阳性对照) (antibody, human IgG1, kappa, V domains shown)
VH: EVQLVESGGGLVQPGGSLRLSCAASGFTFNTYAMNWVRQAPGKGLEWVARIRSKYNNYATYYADSVKDRFTISRDDSKNTLYLQMNSLRAEDTAVYYCVRHGNFGNSYVSWFAYWGQGTLVTVSS
VL: QAVVTQEPSLTVSPGGTVTLTCRSSTGAVTTSNYANWVQQKPGQAPRGLIGGTNKRAPGVPARFSGSLLGGKAALTLSGAQPEDEAEYYCALWYSNLWVFGQGTKVEIKR
notes: Full-length humanised SP34: VH + human IgG1 constant region, VL + human Kappa constant region; also called 阳性对照CD3单抗; 人源化SP34单克隆抗体
Binder B2 has an EC50 (重组Human-CD3-FC蛋白) of 61.8 pM.
